{"source": "paper PMC4262410", "about": "“Identification of Dipeptidyl-Peptidase (DPP)5 and DPP7 in Porphyromonas endodontalis, Distinct from Those in Porphyromonas gingivalis” (PLoS ONE, 2014)", "key": {"PeDPP7 (MER278904)": {"target": "T1, PeDPP7 (MER278904) (Porphyromonas endodontalis, UniProt C3JAQ3)", "T1 construct": "gene dpp7; 70-kDa single band; S46 family", "T1 sequence (C3JAQ3 3-710)": "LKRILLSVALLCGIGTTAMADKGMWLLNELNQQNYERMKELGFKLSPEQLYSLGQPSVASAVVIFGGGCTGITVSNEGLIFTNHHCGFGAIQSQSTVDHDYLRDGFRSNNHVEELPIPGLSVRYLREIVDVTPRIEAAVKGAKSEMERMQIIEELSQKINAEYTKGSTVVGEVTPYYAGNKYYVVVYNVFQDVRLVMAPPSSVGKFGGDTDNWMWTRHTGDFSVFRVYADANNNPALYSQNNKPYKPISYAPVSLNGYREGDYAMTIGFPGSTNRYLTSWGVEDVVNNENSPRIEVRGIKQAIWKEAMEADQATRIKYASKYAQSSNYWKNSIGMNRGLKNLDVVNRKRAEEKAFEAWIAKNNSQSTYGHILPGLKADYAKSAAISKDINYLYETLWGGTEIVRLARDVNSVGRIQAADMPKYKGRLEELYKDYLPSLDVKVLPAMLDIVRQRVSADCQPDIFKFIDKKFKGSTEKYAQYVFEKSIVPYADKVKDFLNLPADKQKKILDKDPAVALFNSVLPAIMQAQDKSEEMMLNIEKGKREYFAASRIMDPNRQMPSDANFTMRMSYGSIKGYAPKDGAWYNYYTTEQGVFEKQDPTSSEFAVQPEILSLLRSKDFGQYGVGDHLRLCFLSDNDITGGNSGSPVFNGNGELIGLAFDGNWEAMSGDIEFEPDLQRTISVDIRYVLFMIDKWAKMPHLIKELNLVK", "experiment": "fluorescence of released aminomethylcoumarin, hydrolysis rate", "type": "biochemical", "details": "20 µM substrate, 50 mM sodium phosphate pH 7.0, 5 mM EDTA, 37°C"}, "[1]": {"test_system": "Cc1cc(=O)oc2cc(NC(=O)[C@H](C)NC(=O)[C@@H](N)CCCCN)ccc12", "experiment": "purified protein", "details": "50 mM sodium phosphate pH 7.0, 5 mM EDTA, 0.1 M NaCl, 37°C", "from_the_text": "(§2) fluorescence of released aminomethylcoumarin, Michaelis-Menten fit on PeDPP5 (MER236725)"}, "[2]": {"test_system": "Cc1cc(=O)oc2cc(NC(=O)[C@H](Cc3ccccc3)NC(=O)CN)ccc12", "experiment": "purified protein", "details": "50 mM sodium phosphate pH 7.0, 5 mM EDTA, 0.1 M NaCl, 37°C", "from_the_text": "as §2"}, "[3]": {"test_system": "Cc1cc(=O)oc2cc(NC(=O)[C@H](Cc3ccc(O)cc3)NC(=O)[C@@H](N)CO)ccc12", "experiment": "purified protein", "details": "50 mM sodium phosphate pH 7.0, 5 mM EDTA, 0.1 M NaCl, 37°C", "from_the_text": "as §2"}, "[4]": {"test_system": "Cc1cc(=O)oc2cc(NC(=O)[C@H](C)NC(=O)[C@@H](N)CCCCN)ccc12", "experiment": "fluorescence of released aminomethylcoumarin, Michaelis-Menten fit", "type": "biochemical, Porphyromonas gingivalis", "details": "50 mM sodium phosphate pH 7.0, 5 mM EDTA, 0.1 M NaCl, 37°C", "description": "(§1) fluorescence of released aminomethylcoumarin, Michaelis-Menten fit on PgDPP5"}, "[5]": {"test_system": "Cc1cc(=O)oc2cc(NC(=O)[C@H](Cc3ccccc3)NC(=O)CN)ccc12", "experiment": "fluorescence of released aminomethylcoumarin, Michaelis-Menten fit", "type": "biochemical, Porphyromonas gingivalis", "details": "50 mM sodium phosphate pH 7.0, 5 mM EDTA, 0.1 M NaCl, 37°C", "description": "as §1"}, "[6]": {"test_system": "Cc1cc(=O)oc2cc(NC(=O)[C@H](Cc3ccc(O)cc3)NC(=O)[C@@H](N)CO)ccc12", "experiment": "fluorescence of released aminomethylcoumarin, Michaelis-Menten fit", "type": "biochemical, Porphyromonas gingivalis", "details": "50 mM sodium phosphate pH 7.0, 5 mM EDTA, 0.1 M NaCl, 37°C", "description": "as §1"}}, "note": "Residues, ends and D or L forms follow the SMILES beside them. *: point of attachment. AMC = Cc1cc(=O)oc2cc(N*)ccc12", "data": [{"compound": "Cc1cc(=O)oc2cc(NC(=O)[C@H](C)NC(=O)[C@@H](N)CCCCN)ccc12", "note": "[Lys-Ala-MCA] (H-Lys-Ala-{AMC})", "values": [{"measurement": "fluorescence of released aminomethylcoumarin, hydrolysis rate", "setting": "PeDPP7 (MER278904)", "result": "slowly hydrolyzed Leu-Gln-, Lys-Ala-, Leu-Arg-, and Ala-Asn-MCA"}]}, {"compound": "PeDPP5 (MER236725) (Porphyromonas endodontalis ATCC 35406)", "values": [{"measurement": "Km", "setting": "[1]", "result": "110 ± 7", "unit": "µM"}, {"measurement": "kcat", "setting": "[1]", "result": "21200 ± 932", "unit": "s⁻¹"}, {"measurement": "kcat/Km", "setting": "[1]", "result": "1.94e+08", "unit": "M⁻¹ s⁻¹"}, {"measurement": "Km", "setting": "[2]", "result": "993 ± 176", "unit": "µM"}, {"measurement": "kcat", "setting": "[2]", "result": "10400 ± 1640", "unit": "s⁻¹"}, {"measurement": "kcat/Km", "setting": "[2]", "result": "1.05e+07", "unit": "M⁻¹ s⁻¹"}, {"measurement": "Km", "setting": "[3]", "result": "257 ± 9", "unit": "µM"}, {"measurement": "kcat", "setting": "[3]", "result": "3470 ± 87", "unit": "s⁻¹"}, {"measurement": "kcat/Km", "setting": "[3]", "result": "1.35e+07", "unit": "M⁻¹ s⁻¹"}]}, {"compound": "PgDPP5 (Porphyromonas gingivalis ATCC 33277)", "values": [{"measurement": "Km", "setting": "[4]", "result": "185 ± 21", "unit": "µM"}, {"measurement": "kcat", "setting": "[4]", "result": "1950 ± 165", "unit": "s⁻¹"}, {"measurement": "kcat/Km", "setting": "[4]", "result": "1.05e+07", "unit": "M⁻¹ s⁻¹"}, {"measurement": "Km", "setting": "[5]", "result": "396 ± 51", "unit": "µM"}, {"measurement": "kcat", "setting": "[5]", "result": "5640 ± 403", "unit": "s⁻¹"}, {"measurement": "kcat/Km", "setting": "[5]", "result": "1.3e+07", "unit": "M⁻¹ s⁻¹"}, {"measurement": "Km", "setting": "[6]", "result": "296 ± 31", "unit": "µM"}, {"measurement": "kcat", "setting": "[6]", "result": "1330 ± 100", "unit": "s⁻¹"}, {"measurement": "kcat/Km", "setting": "[6]", "result": "4.49e+06", "unit": "M⁻¹ s⁻¹"}]}]}
